Key:
Assay in all cases: cleavage_in_vitro
[1] = test system: T1, OMNI-46 (Carnobacterium funditum); settings: TXTL; PAM YAAAR
T1 sequence: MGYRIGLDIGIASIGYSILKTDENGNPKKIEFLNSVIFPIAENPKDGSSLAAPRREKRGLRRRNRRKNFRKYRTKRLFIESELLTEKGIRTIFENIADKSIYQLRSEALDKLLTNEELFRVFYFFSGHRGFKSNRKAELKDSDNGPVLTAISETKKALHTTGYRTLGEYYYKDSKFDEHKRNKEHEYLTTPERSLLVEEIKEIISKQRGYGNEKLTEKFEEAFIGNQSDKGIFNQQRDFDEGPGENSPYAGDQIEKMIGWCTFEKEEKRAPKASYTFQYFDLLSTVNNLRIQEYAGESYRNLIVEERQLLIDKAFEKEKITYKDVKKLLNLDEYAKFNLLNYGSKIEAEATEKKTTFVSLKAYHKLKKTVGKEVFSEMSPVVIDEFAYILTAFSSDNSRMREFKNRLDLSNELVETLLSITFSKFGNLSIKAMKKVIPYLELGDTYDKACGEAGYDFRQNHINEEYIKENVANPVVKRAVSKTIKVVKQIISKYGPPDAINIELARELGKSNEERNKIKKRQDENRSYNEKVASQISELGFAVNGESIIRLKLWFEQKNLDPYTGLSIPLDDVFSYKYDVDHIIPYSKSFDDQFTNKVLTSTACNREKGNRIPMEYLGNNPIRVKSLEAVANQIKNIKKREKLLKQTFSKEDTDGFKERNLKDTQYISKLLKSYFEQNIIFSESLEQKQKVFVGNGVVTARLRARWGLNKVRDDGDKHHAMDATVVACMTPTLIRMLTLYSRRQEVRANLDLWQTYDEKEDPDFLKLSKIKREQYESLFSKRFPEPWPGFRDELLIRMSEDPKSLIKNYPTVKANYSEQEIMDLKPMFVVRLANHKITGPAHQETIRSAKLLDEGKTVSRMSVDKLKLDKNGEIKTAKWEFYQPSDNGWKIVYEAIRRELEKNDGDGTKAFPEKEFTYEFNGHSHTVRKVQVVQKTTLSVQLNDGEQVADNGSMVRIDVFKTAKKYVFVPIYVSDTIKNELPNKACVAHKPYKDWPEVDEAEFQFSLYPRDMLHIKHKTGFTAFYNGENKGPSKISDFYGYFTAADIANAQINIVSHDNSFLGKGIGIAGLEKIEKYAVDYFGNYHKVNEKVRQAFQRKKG

[2] = test system: T2, OMNI-42 (Caviibacter abscessus); settings: TXTL; PAM NNGMM (specific NTGCC); FIG. 3F states V2, table states V1
T2 sequence: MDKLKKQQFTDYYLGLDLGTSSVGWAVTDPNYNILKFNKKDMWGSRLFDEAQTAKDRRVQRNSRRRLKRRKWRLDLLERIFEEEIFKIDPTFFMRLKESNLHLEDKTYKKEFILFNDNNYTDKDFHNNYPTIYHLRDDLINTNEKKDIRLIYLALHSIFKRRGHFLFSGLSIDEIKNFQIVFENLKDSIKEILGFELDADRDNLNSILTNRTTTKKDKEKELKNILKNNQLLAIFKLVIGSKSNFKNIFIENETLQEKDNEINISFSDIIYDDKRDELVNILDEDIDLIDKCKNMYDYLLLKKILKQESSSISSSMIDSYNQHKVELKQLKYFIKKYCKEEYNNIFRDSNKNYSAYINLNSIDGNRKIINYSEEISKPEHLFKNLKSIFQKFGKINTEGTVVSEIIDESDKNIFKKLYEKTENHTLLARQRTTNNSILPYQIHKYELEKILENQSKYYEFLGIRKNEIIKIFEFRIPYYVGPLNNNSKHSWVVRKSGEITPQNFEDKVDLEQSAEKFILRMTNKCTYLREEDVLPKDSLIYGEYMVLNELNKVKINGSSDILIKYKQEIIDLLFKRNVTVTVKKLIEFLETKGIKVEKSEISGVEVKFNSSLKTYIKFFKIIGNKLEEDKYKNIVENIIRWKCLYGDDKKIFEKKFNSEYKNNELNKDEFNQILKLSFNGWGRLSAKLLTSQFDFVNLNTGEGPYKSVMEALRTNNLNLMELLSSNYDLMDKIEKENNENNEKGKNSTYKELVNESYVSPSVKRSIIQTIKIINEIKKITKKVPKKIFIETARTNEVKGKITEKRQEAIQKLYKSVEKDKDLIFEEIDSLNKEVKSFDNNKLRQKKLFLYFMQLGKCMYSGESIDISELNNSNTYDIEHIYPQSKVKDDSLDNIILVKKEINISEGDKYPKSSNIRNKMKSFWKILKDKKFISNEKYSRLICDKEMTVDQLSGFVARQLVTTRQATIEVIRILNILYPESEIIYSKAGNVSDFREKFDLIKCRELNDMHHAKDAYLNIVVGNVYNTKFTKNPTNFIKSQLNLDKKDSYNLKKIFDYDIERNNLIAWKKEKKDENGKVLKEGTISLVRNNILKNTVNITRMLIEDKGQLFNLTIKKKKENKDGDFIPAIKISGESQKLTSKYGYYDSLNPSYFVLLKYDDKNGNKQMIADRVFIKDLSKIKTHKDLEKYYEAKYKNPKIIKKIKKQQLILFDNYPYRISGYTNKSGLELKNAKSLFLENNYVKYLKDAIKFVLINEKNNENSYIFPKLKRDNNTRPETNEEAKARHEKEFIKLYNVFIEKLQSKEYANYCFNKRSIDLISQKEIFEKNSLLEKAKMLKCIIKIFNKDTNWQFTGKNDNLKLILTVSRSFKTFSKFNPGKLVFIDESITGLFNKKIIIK

[3] = test system: T3, OMNI-43 (Arcobacter sp. SM1702); settings: TXTL; PAM YAAAR; V1, V2 tested
T3 sequence: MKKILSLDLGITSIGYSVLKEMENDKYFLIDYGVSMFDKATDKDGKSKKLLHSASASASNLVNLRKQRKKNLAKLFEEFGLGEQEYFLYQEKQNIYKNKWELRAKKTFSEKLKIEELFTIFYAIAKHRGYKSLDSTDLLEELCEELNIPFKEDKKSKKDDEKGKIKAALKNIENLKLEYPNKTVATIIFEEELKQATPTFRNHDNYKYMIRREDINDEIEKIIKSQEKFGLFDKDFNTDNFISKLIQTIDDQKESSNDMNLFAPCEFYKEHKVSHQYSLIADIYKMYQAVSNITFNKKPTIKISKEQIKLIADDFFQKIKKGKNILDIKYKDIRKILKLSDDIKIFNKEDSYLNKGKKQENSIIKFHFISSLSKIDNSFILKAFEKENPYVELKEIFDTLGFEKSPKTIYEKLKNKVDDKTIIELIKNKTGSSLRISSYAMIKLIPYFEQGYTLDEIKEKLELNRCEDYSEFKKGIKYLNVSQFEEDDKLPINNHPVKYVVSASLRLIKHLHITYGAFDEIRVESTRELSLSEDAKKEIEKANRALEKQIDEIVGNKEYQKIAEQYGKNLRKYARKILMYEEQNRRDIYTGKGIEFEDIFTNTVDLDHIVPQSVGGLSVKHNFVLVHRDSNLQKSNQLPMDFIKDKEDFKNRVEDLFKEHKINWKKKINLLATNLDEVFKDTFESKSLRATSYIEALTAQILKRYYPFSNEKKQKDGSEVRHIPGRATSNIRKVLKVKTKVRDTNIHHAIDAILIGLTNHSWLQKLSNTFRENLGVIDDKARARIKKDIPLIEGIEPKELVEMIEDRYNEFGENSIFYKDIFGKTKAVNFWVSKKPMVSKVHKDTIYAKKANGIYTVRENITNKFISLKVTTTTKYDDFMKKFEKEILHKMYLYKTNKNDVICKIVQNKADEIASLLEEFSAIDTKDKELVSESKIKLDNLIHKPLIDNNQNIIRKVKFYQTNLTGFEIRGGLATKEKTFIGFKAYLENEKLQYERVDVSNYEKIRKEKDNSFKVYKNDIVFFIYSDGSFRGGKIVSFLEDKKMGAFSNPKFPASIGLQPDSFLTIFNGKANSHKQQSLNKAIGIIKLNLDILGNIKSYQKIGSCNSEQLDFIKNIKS

[4] = test system: T4, OMNI-44 (Arcobacter mytili); settings: TXTL; PAM NRHAA; FIG. 3H states V2, table states V3
T4 sequence: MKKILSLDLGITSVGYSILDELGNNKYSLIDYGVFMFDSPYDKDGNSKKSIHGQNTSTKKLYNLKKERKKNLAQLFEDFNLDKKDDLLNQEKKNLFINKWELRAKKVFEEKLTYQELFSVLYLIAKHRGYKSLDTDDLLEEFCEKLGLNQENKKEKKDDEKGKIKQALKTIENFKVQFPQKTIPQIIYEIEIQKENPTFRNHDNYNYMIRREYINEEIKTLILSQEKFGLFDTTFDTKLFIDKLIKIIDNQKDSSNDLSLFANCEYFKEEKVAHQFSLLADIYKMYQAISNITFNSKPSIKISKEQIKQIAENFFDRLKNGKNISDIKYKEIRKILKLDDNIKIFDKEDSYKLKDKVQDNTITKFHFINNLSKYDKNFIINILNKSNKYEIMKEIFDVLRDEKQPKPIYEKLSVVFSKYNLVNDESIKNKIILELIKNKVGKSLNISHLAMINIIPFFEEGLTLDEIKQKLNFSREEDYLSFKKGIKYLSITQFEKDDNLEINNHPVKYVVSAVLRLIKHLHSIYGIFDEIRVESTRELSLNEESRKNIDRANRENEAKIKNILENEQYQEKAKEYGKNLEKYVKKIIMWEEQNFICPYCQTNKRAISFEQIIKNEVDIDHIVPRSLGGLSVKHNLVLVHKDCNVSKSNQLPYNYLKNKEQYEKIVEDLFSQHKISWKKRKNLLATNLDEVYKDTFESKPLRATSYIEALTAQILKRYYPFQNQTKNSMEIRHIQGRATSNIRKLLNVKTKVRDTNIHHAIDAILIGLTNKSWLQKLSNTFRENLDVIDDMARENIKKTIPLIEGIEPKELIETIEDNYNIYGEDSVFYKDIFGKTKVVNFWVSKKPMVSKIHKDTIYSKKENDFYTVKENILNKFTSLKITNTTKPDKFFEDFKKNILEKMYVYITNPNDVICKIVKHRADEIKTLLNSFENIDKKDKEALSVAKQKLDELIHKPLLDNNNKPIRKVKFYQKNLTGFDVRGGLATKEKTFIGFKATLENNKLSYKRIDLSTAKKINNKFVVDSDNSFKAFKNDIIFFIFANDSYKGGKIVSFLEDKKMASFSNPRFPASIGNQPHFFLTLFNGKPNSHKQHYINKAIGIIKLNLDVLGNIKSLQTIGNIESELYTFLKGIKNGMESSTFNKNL

GGAAGAGCAGAGCCUUGGUCUCGCUAUACGUUCCUUACAAAAUCGGGAAACCGACUUUGCAAGGAACGUAUAGUAAAGGGAGUGCUCUGCACUCUCCUGUAAAGCACUAACCCCAUUUUCUUCGGAGAAUGGGGUUAUCUUUUU / GGAAGAGCAGAGCCTTGGTCTCNNNNNNNN / NNNNNNNNGAGACCAAGGCTCTGCTCTTCC [OMNI-46 T2 sgRNA V2 ; pbPOS T2 protospacer 8N PAM library]
activity (1-depletion score) [1]: 0.95

GGAAGAGCAGAGCCUUGGUCUCGUUUAAGAGUUAUGUAAGAAAUUACAUAACGAGUUUAAAUAAAAAUUUAUUGAAAUCGUCAAAUUAUUUUUGACUAGCCUCUUUUUGAAGAGGUUUUUUU / GGAAGAGCAGAGCCTTGGTCTCNNNNNNNN / NNNNNNNNGAGACCAAGGCTCTGCTCTTCC [OMNI-42 T2 sgRNA V2 ; pbPOS T2 protospacer 8N PAM library]
activity (1-depletion score) [2]: 0.91

GGAAGAGCAGAGCCUUGGUCUCGUUUUAAUACCCCUACAAACUGGAAACAGUUUAAUAGGGGUAUUAAACUAAGGUUGCUAUUUUAGCAACUGACUUUAGGCAGUGGUUUCGACCACUUGCCCUUUUUU / GGAAGAGCAGAGCCTTGGTCTCNNNNNNNN / NNNNNNNNGAGACCAAGGCTCTGCTCTTCC [OMNI-43 T2 sgRNA V1 ; pbPOS T2 protospacer 8N PAM library]
activity (1-depletion score) [3]: 0.91

GGAAGAGCAGAGCCUUGGUCUCGUUUUAAUACCCCUAUAAACUACUAGAAAUAGUAGUUUAAUAGGGGUAUUAAACUAAGACUACUUUAAUAGUAGUUGAUUUUAGGAGAUAGUUUUUCUAUCUCCCUUUUU / GGAAGAGCAGAGCCTTGGTCTCNNNNNNNN / NNNNNNNNGAGACCAAGGCTCTGCTCTTCC [OMNI-44 T2 sgRNA V2 ; pbPOS T2 protospacer 8N PAM library]
activity (1-depletion score) [4]: 0.96

Source: patent US20220213456
